# Data published in patent publication US10688197B2, “Non-alcoholic fatty liver regulator 14-3-3 protein” (Korea University Research and Business Foundation, priority 2015, dated 2020).
# Residue numbers refer to the chain shown, from its start.
# What was measured:
# [1] = target: T1, binding between PPARγ2 and 14-3-3γ (Homo sapiens, UniProt P37231); test: GST-pull down assay, binding between PPARγ2 and 14-3-3γ (HEK-293T)
# T1 construct: expressed in transfected cells; host or cells: HEK-293T
# T1 sequence (P37231 1-505): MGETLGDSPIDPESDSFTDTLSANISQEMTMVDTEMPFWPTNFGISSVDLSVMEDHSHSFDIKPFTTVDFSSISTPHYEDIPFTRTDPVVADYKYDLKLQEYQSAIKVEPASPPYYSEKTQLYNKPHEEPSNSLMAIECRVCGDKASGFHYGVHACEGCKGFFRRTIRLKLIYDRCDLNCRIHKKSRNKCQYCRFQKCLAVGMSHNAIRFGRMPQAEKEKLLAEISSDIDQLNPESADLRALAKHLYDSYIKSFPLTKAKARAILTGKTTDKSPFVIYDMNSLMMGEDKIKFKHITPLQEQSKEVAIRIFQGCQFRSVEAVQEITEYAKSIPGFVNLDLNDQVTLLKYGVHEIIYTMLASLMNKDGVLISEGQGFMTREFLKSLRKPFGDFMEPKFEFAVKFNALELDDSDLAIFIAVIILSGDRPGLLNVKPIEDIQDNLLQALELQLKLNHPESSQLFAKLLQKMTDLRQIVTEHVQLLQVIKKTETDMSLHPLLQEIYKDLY
# Procedure: After transfection, […], washed with ice-cold PBS, and lysed using 500 μl/well of a lysis buffer (150 mM NaCl, 1 mM EDTA, 1% Nonidet P-40, 5% glycerol, 25 mM tris-HCl, pH 7.5, protease inhibitor added), and the lysed cells were centrifuged at 10,000×g and 4° C. for 10 minutes to extract proteins. Thereafter, 1,000 μg of the proteins was reacted with 20 μl of glutathione Sepharose 4B beads (GE Healthcare, Buckinghamshire, UK) for 6 hours, and then washing of the beads with 1 ml of ice-cold PBS was repeated 5 times, and the beads were boiled at 100° C. for 10 minutes, followed by 10% SDS-PAGE gel separation and western blotting. A ratio of GST antibodies (Santa Cruz) to Myc antibodies (self-production) was 1:3000. The detection of each protein was performed using West Pico ECL (Thermo scientific, Rockford, Ill.) and identified in a darkroom.
# After transfection, […], washed with ice-cold PBS, and lysed using 500 μl/well of a lysis buffer (150 mM NaCl, 1 mM EDTA, 1% Nonidet P-40, 5% glycerol, 25 mM tris-HCl, pH 7.5, protease inhibitor added), and the lysed cells were centrifuged at 10,000×g and 4° C. for 10 minutes to extract proteins. […]
# PPARγ2 S273A mutant = target: T2, PPARγ2 S273A mutant (Homo sapiens, UniProt P37231, S273A); test: GST-pull down assay with PPARγ2 S273A mutant; format: binding; details: FIGS. 4A and 4B
# T2 construct: expressed in transfected cells; host or cells: HEK-293T
# T2 sequence (P37231 1-505 S273A): T1 sequence (P37231 1-505) with S273A
# Procedure: 14-3-3 proteins are known to bind to phosphorylated residues of a target protein. Phosphorylated residues associated with the activity of PPARγ2 are known to be serine 112 and serine 273. Thus, PPARγ2 mutants (PPARγ2 S112A and S273A) with non-phosphorylated serine 112 and serine 273 residues were produced and binding thereof with 14-3-3 proteins was verified through GST-pull down assay.
# HEK-293T cells were seeded in a 100 mm plate at a density of 2×10^6 cells per each well, and then transfected with Flag-PPARγ2 (WT) DNA (4 μg), Flag-PPARγ2 (S112A) DNA (4 μg), Flag-PPARγ2 (S273A) DNA (4 μg), and mGST-14-3-3β (4 μg) or mGST-14-3-3γ (4 μg) using an E-fection plus reagent (Lugen). As for Flag-PPARγ2 (S112A) DNA and Flag-PPARγ2 (S273A) DNA, DNA fragments amplified through polymerase chain reaction (PCR) were cloned into a Flag-tagged vector. A ratio of DNA to the E-fection plus reagent was 1:2, and this method was performed according to a manufacturer's manual. The corresponding cells were washed with ice-cold PBS and lysed using 500 μl/well of a lysis buffer (150 mM NaCl, 1 mM EDTA, 1% Nonidet P-40, 5% glycerol, 25 mM tris-HCl, pH 7.5, protease inhibitor added), and the lysed cells were centrifuged at 10,000×g and 4° C. for 10 minutes to extract proteins. […]
"binding between 14-3-3γ and PPARγ2 ([1]; expression amount of 14-3-3β increased (HA-14-3-3β DNA 2 and 4 μg), FIG. 5B)",binding with PPARγ2 S273A mutant (PPARγ2 S273A mutant),"binding between PPARγ2 and 14-3-3γ ([1]; 200 μM oleic acid 72 hours, FIG. 8B)",Compound
reduced,suppressed,–,14-3-3β: 14-3-3 isoform protein overexpressed by DNA transfection; increases the transcriptional activity of PPARγ2 by binding to PPARγ2
–,suppressed,–,14-3-3γ: 14-3-3 isoform protein overexpressed by DNA transfection; decreases the transcriptional activity of PPARγ2; proposed active ingredient
–,–,reduced,CCCCCCCC/C=C\CCCCCCCC(=O)O [oleic acid]
